Data set [1] deals with histone H3 phosphorylation at Ser 10 (H3 pS10). The data set can be described thus: H3 pS10 immunofluorescence in HeLa cells infected with the ospF strain, kinase inhibitors. The data set is classed as cell-based. Particulars: 60 min pretreatment with both U0126 (10 μM) and SB203180 (2.5 μM), infection 30 min.
Description: Indirect immunofluorescence detection was performed with anti-phospho-histone H3 S10 polyclonal antibody. […] Cells were left untreated (ns) or infected with the ospF strain for 30 min. IF was performed with anti-H3 methyl K9-pS10 antibody.
Indirect immunofluorescence. Cells were fixed with 3.7% paraformaldehyde in PBS for 10 min, permeabilized with 0.5% Triton-X in PBS. The following antibodies were used: anti-phospho-p42/p44 antibody (Sigma); anti-p42/p44, anti-phospho-histone H3 S10 (Upstate Cell Signaling), anti-acetyl histone H4 (Lys14) (Upstate Biotechnology) antibodies.
The next data set has as its system ^33P-labeled Erk2. Description: 33P-labeled Erk2 phosphatase assay, steady state kinetics. Particulars: 100 nM phosphatase, pH 8, 30° C., 10 minutes, Michaelis-Menten fit.
The subject of data set [2] is histone H3 phosphorylation at Ser 10 (H3 pS10). The data set can be described thus: H3 pS10 induced by okadaic acid in HeLa cells overexpressing OspF. The settings on record: HeLa transfected with pRK5myc-OspF, 200 nM okadaic acid 3 hours. The data set is classed as cell-based. The procedure:
(§1) (A) HeLa cells were left untreated (ns) or infected with the WT or the ospF strain at the indicated time. Indirect immunofluorescence detection was performed with anti-phospho-histone H3 S10 polyclonal antibody. (B) HeLa cells were synchronized by a double thymidine block (2 mM thymidine) and left untreated (ns) or infected with the WT or the ospF strain at the indicated time. Immunoblots were probed with anti-H3 phospho S10 (H3 pS10), anti-H3 methyl K9-phospho S10(H3 metK9-pS10), anti-H3 phospho S10. acetyl-K14 (H3 p-S10/Ac-K14), anti Histone H3 polyclonal anti-pp38 and pErk antibodies. (C) HeLa cells were transfected with pRK5myc-OspF vector and treated with 200 nM okadaic acid for 3 hours. IF was performed with anti-myc (red) and anti-H3 methyl K9-pS10 (green) antibodies. […] (D) One micogram of calf-thymus histone (Sigma) was incubated with 300 ng of His-OspF or with 120 U of λ phosphatase for 2 hours at 30° C. Western blot was performed with an anti-metK9-pS10 antibody. (E) One micogram of peptide metK9-S10 was spotted onto a nitrocellulose membrane that was incubated with buffers, 5 μg/ml of OspF, or 2000 U/ml of lambda phosphatase for 2 hours at 30° C. Western blot was performed with an anti-metK9-pS10 antibody. (F) HeLa cells were pretreated for 60 min with either the MEK1 inhibitor U0126 (10 μM) or the p38 inhibitor SB203180 (2.5 μM) or both. […]

For the next data set, the target named is T1, phospho JNK1 Histidine (Homo sapiens, UniProt P45983).
T1 construct: His
T1 sequence (P45983 whole entry): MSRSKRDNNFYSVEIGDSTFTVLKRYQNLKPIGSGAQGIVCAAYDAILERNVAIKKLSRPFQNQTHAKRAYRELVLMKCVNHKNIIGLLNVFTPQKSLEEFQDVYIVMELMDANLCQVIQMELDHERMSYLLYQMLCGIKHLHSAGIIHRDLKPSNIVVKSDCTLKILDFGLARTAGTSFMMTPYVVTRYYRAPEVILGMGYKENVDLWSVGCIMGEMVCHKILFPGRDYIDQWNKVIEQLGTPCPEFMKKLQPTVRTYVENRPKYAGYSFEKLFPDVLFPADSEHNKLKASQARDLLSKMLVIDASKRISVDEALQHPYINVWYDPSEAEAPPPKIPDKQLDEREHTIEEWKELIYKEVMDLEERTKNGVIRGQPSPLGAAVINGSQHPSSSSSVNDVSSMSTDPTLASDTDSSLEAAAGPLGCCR
The data set can be described thus: In vitro phosphatase assay on phospho JNK1 (Western blot). The format is biochemical. The settings on record: purified phospho-MAP kinase, 50 nM.

The next data set relates to IL-12. Description: Murine model of pulmonary infection, lung cytokines by ELISA. The data set is classed as in vivo, mice. Particulars: lungs infected with M90T or ospF strain, 24 hours post-infection (FIG. 10). Here is the method:
The cytokine/chemokine network induced upon infection with Shigella flexneri was analyzed by comparing the profiles obtained upon infection with the invasive strain carrying the virulence plasmid (INV+) and the non-invasive, plasmidless strain (INV−). The murine model of pulmonary infection was used since it was the only valid model to analyze the specific host immune response upon Shigella infection. Following infection with INV−, a Th1 type-network (IL-12, IL-18, IFN-γ, CCL9, CCL10, CCL13, and CCL4) was induced. In contrast, a Th2/Tr1 profile (IL-10, CCL1, CCL24 and CCL2) was induced upon infection with INV+. The difference observed was not due to the bacterial dose used for the infection, but was dependent on the presence or absence of the virulence plasmid.
Some of these bacterial effectors are injected within the host cells by a type III secretion apparatus. Use of different bacterial mutants, has highlighted that the bacterial effectors involved in the immunomodulation were effectors secreted by the type III-secretion apparatus. Finally, OspF, a type III-secreted bacterial effector was responsible fore the control of IL-12 production (FIG. 10).

The test system of data set [3] is histone H3 purified from calf thymus. Description: In vitro dephosphorylation of histone H3 / H3 tail peptides. The format is biochemical. The settings on record: 2 hours at 30° C., even when enzyme concentration increased 100 fold. The procedure: as §1
A further data set deals with NF-κB reporter construct. Description: TNF-α-induced NF-κB reporter construct in Caco 2 cells. The format is cell-based, human. The settings on record: overexpression in Caco 2 cells. The source says: In addition to the classical MAPK-dependent target genes, OspF also repressed expression of some NF-κB-dependent chemokine genes such as IL-8. The IL-8 promoter contains an NF-κB binding site essential for expression of this gene (Hoffmann et al., 2002). Therefore, the inventors looked whether OspF interferes with the NF-κB signaling pathway. […] (FIG. 5E).

The test system of a further data set is pErk2-GST. Description: In vitro phosphatase assay on phospho-Erk2 (Western blot). The settings on record: purified protein, Western blot with anti phospho-Erk.
Another data set addresses T2, phospho p38-GST (Homo sapiens, UniProt Q16539).
T2 construct: GST
Description: In vitro phosphatase assay on phospho p38 (Western blot). The format is biochemical. The settings on record: purified phospho-MAP kinase, 50 nM.

Another data set deals with p38 MAP kinases. The data set can be described thus: p38 phosphorylation in transfected HeLa cells stimulated by TNF. The data set is classed as cell-based. Particulars: TNF stimulation.
Another data set concerns p46 and p54 JNK kinases. Description: JNK phosphorylation in transfected HeLa cells stimulated by TNF. The data set is classed as cell-based. The settings on record: TNF stimulation.
The test system of the next data set is endogenous Erk. Description: Erk phosphorylation in transfected HeLa cells stimulated by PMA. The settings on record: HeLa cells transfected with expression plasmid, PMA stimulation.

T2 sequence (Q16539 whole entry): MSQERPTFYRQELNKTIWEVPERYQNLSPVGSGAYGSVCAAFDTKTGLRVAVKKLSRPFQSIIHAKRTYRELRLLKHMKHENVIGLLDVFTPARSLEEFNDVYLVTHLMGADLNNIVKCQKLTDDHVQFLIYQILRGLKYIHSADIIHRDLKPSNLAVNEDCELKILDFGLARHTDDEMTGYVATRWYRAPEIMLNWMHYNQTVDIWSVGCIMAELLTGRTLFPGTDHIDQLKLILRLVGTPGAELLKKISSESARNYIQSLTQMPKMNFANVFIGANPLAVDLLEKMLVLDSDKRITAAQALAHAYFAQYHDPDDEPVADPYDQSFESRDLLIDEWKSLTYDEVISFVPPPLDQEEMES
Description for ^33P-labeled Erk2: Preparation of the ^33P-labeled Erk2 kinase substrate. The in vitro phosphorylation of the GST-Erk2 fusion protein was carried out by incubating 500 μg purified GST-Erk2 coupled to beads with 20 μg His6-tagged activated MEK1 (Upstate Cell Signaling) in a kinase buffer (50 mM Tris pH 7.5, 2 mM DTT, 10 mM MgCl2) with 100 μM ATP (γ-3P ATP, 3000 Ci/mmol) for 2 hours at 30° C. The beads were washed 5 times with 30 ml of 1× PBS and eluted in 50 mM Tris pH 8, 10 mM glutathione, and 10% glycerol. The fractions were dialyzed overnight to remove residual ATP in 50 mM Tris pH8, 50 mM NaCl, and 10% glycerol.
In vitro phosphatase assay. […] Therefore, the reaction was initiated by the addition of the phosphatase, incubated for 10 minutes at 30° C. and terminated by adding 200 μl cold 20% trichloroacetic acid. The samples were centrifuged at 10,000×g and 200 μl of the supernatant was mixed with 5 ml of scintillation fluid for taking radioactivity measurements. The product generated (inorganic phosphate) was kept below 5% of the initial substrate concentrations. Reactions containing the Erk2 substrate and buffer without phosphatase was used as a blank for each data point. The data were fitted to the Michaelis-Menten equation using the software Kaleidagraph.
The kinetic parameters were determined by following the production of radioactive inorganic phosphate.

For the molecule `N#CC(=C(/N)Sc1ccccc1N)/C(C#N)=C(\N)Sc1ccccc1N` [U0126], in data set [1], the “H3 pS10 signal induced by the ospF strain” value is given as “fully inhibited”.

In the case of `C[S+]([O-])c1ccc(-c2nc(-c3ccc(F)cc3)c(-c3ccncc3)[nH]2)cc1` (stereo not shown) [SB 203180], the “H3 pS10 signal induced by the ospF strain” value in [1] was “fully inhibited”.

B1: MKP1: known mammalian dual specific phosphatase used as a control (protein, UniProt P28562 1-367, looked up)
Dual specificity protein …: MVMEVGTLDAGGLRALLGERAAQCLLLDCRSFFAFNAGHIAGSVNVRFSTIVRRRAKGAMGLEHIVPNAELRGRLLAGAYHAVVLLDERSAALDGAKRDGTLALAAGALCREARAAQVFFLKGGYEAFSASCPELCSKQSTPMGLSLPLSTSVPDSAESGCSSCSTPLYDQGGPVEILPFLYLGSAYHASRKDMLDALGITALINVSANCPNHFEGHYQYKSIPVEDNHKADISSWFNEAIDFIDSIKNAGGRVFVHCQAGISRSATICLAYLMRTNRVKLDEAFEFVKQRRSIISPNFSFMGQLLQFESQVLAPHCSAEAGSPAMAVLDRGTSTTTVFNFPVSIPVHSTNSALSYLQSPITTSPSC
On to B1, for which the “kcat of Erk2 dephosphorylation” value in the data set with ^33P-labeled Erk2 turned out to be 0.0006 s⁻¹.

B2: OspF: protein encoded by the Shigella ospF gene, a dual specific phosphatase; NCBI Accession CAC05773 (protein)
chain: MPIKKPCLKLNLDSLNVVRSEIPQMLSANERLKNNFNILYNQIRQYPAYYFKVASNVPTYSDICQSFSVMYQGFQIVNHSGDVFIHACRENPQSKGDFVGDKFHISIAREQVPLAFQILSGLLFSEDSPIDKWKITDMNRVSQQSRVGIGAQFTLYVKSDQECSQYSALLLHKIRQFIMCLESNLLRSKIAPGEYPASDVRPEDWKYVSYRNELRSDRDGSERQEQMLREEPFYRLMIE
For B2, the “induction of H3 pS10 by okadaic acid” value in data set [2] is reported as “efficiently prevented induction”. Besides, in the data set with phospho JNK1 Histidine, the “dephosphorylation of phospho JNK1” value was “failed to dephosphorylate”. Also, the “IL-12 production in vivo” value in the data set on IL-12 was “down regulated”. In the data set on ^33P-labeled Erk2, the “Vmax of Erk2 dephosphorylation” value came to 9.89 pM/s and the “kcat of Erk2 dephosphorylation” value is 0.0001 s⁻¹. In the data set on ^33P-labeled Erk2 (read-out: Km of Erk2 dephosphorylation), the Km worked out at 0.204 µM. For the same molecule, the “direct dephosphorylation of histone H3 (metK9-pS10 / pS10)” value in data set [3] was “did not directly dephosphorylate”. For the same molecule, in the data set on NF-κB reporter construct, the “TNF-α-induced activation of NF-κB reporter” value is on record as “did not impair”. In the data set with pErk2-GST, the “dephosphorylation of phospho-Erk2” value is on record as “directly dephosphorylated”. Moreover, the “dephosphorylation of phospho p38” value with phospho p38-GST was “directly dephosphorylated”.

B3: myc-labelled OspF: OspF with a myc label expressed from plasmid pRK5myc-OspF (protein)
chain: MPIKKPCLKLNLDSLNVVRSEIPQMLSANERLKNNFNILYNQIRQYPAYYFKVASNVPTYSDICQSFSVMYQGFQIVNHSGDVFIHACRENPQSKGDFVGDKFHISIAREQVPLAFQILSGLLFSEDSPIDKWKITDMNRVSQQSRVGIGAQFTLYVKSDQECSQYSALLLHKIRQFIMCLESNLLRSKIAPGEYPASDVRPEDWKYVSYRNELRSDRDGSERQEQMLREEPFYRLMIE
modifications: left off: small tags and cut ends
As for B3, in the data set on p38 MAP kinases, the “effect on p38 phosphorylation in cells” value is given as “prevented phosphorylation”. Besides, the “effect on JNK phosphorylation in cells” value with p46 and p54 JNK kinases is given as “not”. In the data set with endogenous Erk, the “effect on Erk phosphorylation / ability to dephosphorylate Erk in cells” value is “prevented phosphorylation”.

Source of the values: patent US8092989B2, “Targeting the histone code as a bacterial strategy for selectively modulating gene expression” (Institut Pasteur, priority 2005, dated 2012).
